This test deals with Her-2 (human) (UniProt P04626). Description: antibody titration on FFPE SKBR-3 (positive) and MDA-MB-468 (negative) cells, non-proximal direct VeraTag release with 200 uM methylene blue, multi-parameter curve fit, single site.

“Ab8-Pro11 (monoclonal antibody Ab8 against the cytoplasmic domain of HER2, Lab Vision, conjugated to VeraTag reporter Pro11)” returned an equilibrium dissociation constant (Kd) of 8 µg/mL.

As a reminder, the Kd is a measure of binding affinity in units of concentration. The low end stands for a tighter complex, the high end for a looser complex.

These data come from patent publication KR20110120890A.
